The target in assay [1] is Endothelial protein C receptor (EPCR) peptide on (human). Description: TEG library γ-random/δ-random, 16 h with Luc-Tom HT-29 (cells that express the antigen), E:T 1:3; CD69/CD107a sort, NGS read ratio; Fig. 9; full-length, on cells. The note with it: chains Vgamma:Vdelta.
Assay [2] has as its target T1, endothelial protein C receptor (EPCR) on HT-29 cells (UniProt Q9UNN8 18-238, limits assumed).
T1 construct: whole, on cells; The description says 'preferably human EPCR'; HT-29 is a human cell line; also called recognised target; target antigen
T1 sequence (looked up): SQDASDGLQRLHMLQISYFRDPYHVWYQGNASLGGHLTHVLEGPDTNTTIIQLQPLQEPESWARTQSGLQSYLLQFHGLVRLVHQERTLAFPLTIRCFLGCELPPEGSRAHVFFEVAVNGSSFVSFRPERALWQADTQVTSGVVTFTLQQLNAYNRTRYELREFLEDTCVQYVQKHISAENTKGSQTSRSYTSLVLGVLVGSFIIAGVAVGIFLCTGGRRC
The assay can be described thus: flow cytometry on HT-29 cells (wild-type, EPCR-enhanced, EPCR KO), streptavidin-A647 detection.
Method: Target cells mock treated with PBS served as control binding (FIG. 15A). […] Mock treated and unstained target cells served as controls. Data was analysed with flowjo and shown as histograms.
(§1) Trypsinized HT-29 target cells seeded in 96-well round bottom-plates were incubated for 2 hours at 37° C. to recover cell surface expression molecules. […] Unbound sTCR/TCR-CD3 bispecific engager was washed. Bound sTCR or TCR-CD3 bispecific engager was stained respectively with streptavidin-labelled A647 (BioLegend, CA, USA) or anti-His-APC (BioLegend). Staining was determined with FACS flow cytometry was results were analyzed with Flowjo software.
The soluble γδTCRs were used to assess specific binding to HT-29 cells, HT-29 knocked out (KO) for the expressed target (EPCR) or HT-29 cells with ectopic target expression. Bound soluble γδTCRs were targeted with a secondary streptavidin A647-labelled antibody that could be detected with FACS flow cytometry.

The target in assay [3] is T1, endothelial protein C receptor (EPCR) …. The assay can be described thus: flow cytometry on HT-29 cells (wild-type, EPCR ectopic, EPCR KO), anti-His-APC detection. Background: A flow cytometer gives signals particle by particle.
Method: PBS-mock treated (secondary only) or unstained target cells served as controls. Data was analysed with flowjo and shown as histograms.
as §1
The γδTCR-CD3 bispecific engagers were used in binding experiments utilizing HT-29 cells, HT-29 with the target antigen (EPCR) knocked out (KO) or with ectopic expression of the target. Bound γδTCR-CD3 bispecific engagers were targeted with an anti-His-APC-labelled secondary antibody that could be detected with FACS flow cytometry.

The values that follow come from patent publication US20240075068A1 (GADETA B V, published 2024).

B1: E57 G7/D5 (protein)
chain 1: SSNLEGRTKSVIRQTGSSAEITCDLAEGSTGYIHWYLHQEGKAPQRLLYYDSYTSSVVLESGISPGKYDTYGSTRKNLRMILRNLIENDSGVYYCATWEAFYYKKLFGSGTTLVVT
chain 2: DQQVKQNSPSLSVQEGRISILNCDYTNSMFDYFLWYKKYPAEGPTFLISISSIKDKNEDGRFTVFLNKSAKHLSLHIVPSQPGDSAVYFCAASSPIKGYTGSDKLIFGKGTRVTVEP
On to B1, for which the enrichment of CD69+/CD107a+ over CD69-/CD107a- reads in assay [1] is over 170%.

B2: sE57 G2/D1 soluble γδTCR (affinity decreased variant, without cysteine) (TCR, V domains shown)
V domain 1: SSNLEGRTKSVIRQTGSSAEITCDLAEGSTGYIHWYLHQEGKAPQRLLYYDSYTSSVVLESGISPGKYDTYGSTRKNLRMILRNLIENDSGVYYCATWDGYKKLFGSGTTLVVTD
V domain 2: DQQVKQNSPSLSVQEGRISILNCDYTNSMFDYFLWYKKYPAEGPTFLISISSIKDKNEDGRFTVFLNKSAKHLSLHIVPSQPGDSAVYFCAASSPIRGYTSGSDKLIFGKGTRVTVEP
modifications: biotinylated via Avi-tag (BirA co-transfection in the presence of biotin)
notes: also called G2/D1 variant
For the molecule B2, in assay [2], the binding result is recorded as “no binding (tested: 10 µg)”.

B3: soluble γδTCR-CD3 bispecific engager comprising the G2/D1 variant regions (TCR, V domains shown)
V domain 1: SSNLEGRTKSVIRQTGSSAEITCDLAEGSTGYIHWYLHQEGKAPQRLLYYDSYTSSVVLESGISPGKYDTYGSTRKNLRMILRNLIENDSGVYYCATWDGYKKLFGSGTTLVVTD
V domain 2: DQQVKQNSPSLSVQEGRISILNCDYTNSMFDYFLWYKKYPAEGPTFLISISSIKDKNEDGRFTVFLNKSAKHLSLHIVPSQPGDSAVYFCAASSPIRGYTSGSDKLIFGKGTRVTVEP
notes: This is a TCR-scFv fusion; also called G2/D1 γδTCR-CD3 bispecific engager; G2D1 γδTCR-CD3 bispecific engager
B3: the binding result in assay [3] is “no binding (tested: 5 µg)”.
